We go through twelve substances from patent US9260500B2, “Peptide and use thereof” (Takeda Pharmaceutical Company Limited, priority 2009, dated 2016).

One test concerns male C57BL/6J mouse. Kind of test: 3-Day Continuous Subcutaneous Administration Test-2 (food intake suppressing activity). In kind it is in vivo. Particulars: 0.03 mg/kg/day, subcutaneous Alzet pump, food consumption as of 2 days after start; versus solvent (50% DMSO) control group. The method, then:
(5) Test Method: 3-Day Continuous Subcutaneous Administration Test-2
The food intake suppressing activity of the compound of the present invention was examined by the following method.
The test compound was dissolved in a solvent (50% DMSO) so that sustained release would occur at 0.03 mg/kg/day, and the solution was filled in the Alzet Pump (DURECT Corporation, model: 1003D). After the filling, the pump was immersed in physiological saline for priming, and then used. The pump was embedded by the following method. Each male C57BL/6J mouse at 9-10 weeks of age (25° C., allowed to take food and water ad libitum; 12-hour bright-12-hour dark cycle) was anesthetized; the skin in the upper back thereof was incised, and the above-mentioned pump was embedded subcutaneously; the incision was sutured. After weighing, this mouse was returned to the rearing cage (reared alone), and given previously weighed food; food consumption as of 2 days after the start of administration was measured. The food consumption was calculated by subtracting the amount of remaining food from the weight of the food given on the day of the start of administration. From the food consumption obtained, the food intake suppression rate (%) of each test compound was calculated using the following the formula.
A group receiving administration of the aforementioned solvent alone was the control group.
Food intake suppression rate (%): (Food consumption for control group−food consumption for test compound administration group)/food consumption for control group×100

The target of test [1] is T1, human Y2 receptor (Homo sapiens, UniProt P49146).
T1 construct: expressed in transfected cells; membrane fraction
T1 sequence (P49146 1-381): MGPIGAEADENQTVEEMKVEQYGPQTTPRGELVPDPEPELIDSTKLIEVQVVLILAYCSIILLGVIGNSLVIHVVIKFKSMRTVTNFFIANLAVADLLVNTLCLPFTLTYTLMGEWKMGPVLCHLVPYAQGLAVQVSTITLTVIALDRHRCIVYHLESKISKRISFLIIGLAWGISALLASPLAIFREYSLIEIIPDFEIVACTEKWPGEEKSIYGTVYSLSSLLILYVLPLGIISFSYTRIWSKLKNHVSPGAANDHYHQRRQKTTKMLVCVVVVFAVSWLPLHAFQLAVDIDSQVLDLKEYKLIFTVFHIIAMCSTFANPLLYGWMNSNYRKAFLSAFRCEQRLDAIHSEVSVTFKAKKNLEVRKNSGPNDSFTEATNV
Kind of test: Human Y2 Receptor G Protein Binding Assay (GBA), [35S]GTPγS. It is filed as biochemical. The conditions noted are these: EC50 of test compound/EC50 of PYY(3-36) (PYY3-36 taken as 1), hY2R/CHO membrane fraction. The essentials: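 Agonism measured as [35S]GTPγS binding, read by GF/C filtration and scintillation counting after 120 min at room temperature, using human Y2 membranes at 1 μg protein/mL in pH 7.4 Tris/MgCl2/NaCl/GDP buffer. Compound serially diluted 100 μM–1 nM; EC50 normalized to PYY(3-36) (ratio = compound/PYY).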

The test system of the next test is male C57EL/6J mice. Kind of test: 3-Days Continuous Subcutaneous Administration Test-1 (food intake suppressing activity). Particulars: 0.03 mg/kg/day, subcutaneous Alzet pump, food consumption over 3 days; relative to food intake suppression rate for PYY(3-36) (1 mg/kg/day) taken as 100%. It is filed as in vivo, mouse. An outline of the steps:
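Male […] mice, 12-13 weeks, received compound at 0.03 mg/kg/day by subcutaneous osmotic pump (50% DMSO vehicle), housed singly with free food access. Food consumed over 3 days measured; suppression expressed relative to PYY(3-36) (1 mg/kg/day) set as 100%.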

The target in test [2] is T1, human Y2 receptor. Description: Receptor Binding Assay (RBA) for Human Y2, [125I]-PYY displacement on hY2R/CHO membrane fraction. Particulars: IC50 of test compound/IC50 of PYY(3-36) (PYY(3-36) taken as 1). An outline of the steps: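 hY2R stably expressed in CHO/dhfr− cells; membrane fraction prepared from cells disrupted in 10 mM NaHCO3, 5 mM EDTA buffer with protease inhibitors. Binding read as displacement of [125I]-PYY.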

Starred links: 1 amine or outer side, 2 acyl side, 3 side chain; linkers in the order of their positions; H or OH if unused. Non-standard residues stand in square brackets, D forms with d. *: point of attachment. X2 = (tetrahydro-2H-pyran-4-ylmethyl)carbamoyl, O=C(NCC1CCOCC1)*; Ala(piperidin-4-yl) = O=C([C@H](CC1CCN([*:3])CC1)N[*:1])[*:2]; (2-amino-2-oxoethyl)carbamoyl = NC(=O)CNC(=O)*; Tetrahydropyran4carbonyl = O=C(C1CCOCC1)*; 2Nal = N[C@@H](Cc1ccc2ccccc2c1)C(=O)O; tBuAla = CC(C)(C)C[C@H](N)C(=O)O; 4Pal = N[C@@H](Cc1ccncc1)C(=O)O; dHyp = O=C(O)[C@H]1C[C@H](O)CN1; Cha = N[C@@H](CC1CCCCC1)C(=O)O; dIva = CC[C@@](C)(N)C(=O)O; Iva = CC[C@](C)(N)C(=O)O; Aib = CC(C)(N)C(=O)O

As for “4-Imidazolecarbonyl-[D-Hyp24, Iva25, Pya(4)26, Cha27,36, Leu(Me)28, Har30, Aib31]-PYY(23-36) [compound No. 367]”, the “food intake suppression rate (%)” value in the test on male C57BL/6J mouse is given as 24.0%.
As for “4-Imidazolecarbonyl-[D-Hyp24, Pya(4)26, Cha27,36, Iva28, Lys(Ac)30, D-Iva31]-PYY(23-36) [compound No. 374]”, in the test on male C57BL/6J mouse, the “food intake suppression rate (%)” value was determined as 22.6%.
On the same count and under the same terms, in the case of “4-Imidazolecarbonyl-[D-Hyp24, Iva25, Pya(4)26, Cha27,36, Iva28, Lys30, D-Iva31]-PYY(23-36) [compound No. 372]” it was 27.2%; in that of “Thp(4)-CH2NHCO-[D-Hyp24, Iva25, Pya(4)26, Cha27,36, Leu(Me)28, Lys30, Aib31]-PYY(23-36) [compound No. 359]”, 43.4%.
For “Ac-[Glu23, D-Hyp24, Cha27,28,36, Lys30, Aib31]-PYY(23-36) (Ac-E[dHyp]RH[Cha][Cha]NK[Aib]TRQR[Cha]-NH2; SMILES CC(=O)N[C@@H](CCC(=O)O)C(=O)N1C[C@@H](O)C[C@@H]1C(=O)N[C@@H](CCCNC(=N)N)C(=O)N[C@@H](Cc1c[nH]cn1)C(=O)N[C@@H](CC1CCCCC1)C(=O)N[C@@H](CC1CCCCC1)C(=O)N[C@@H](CC(N)=O)C(=O)N[C@@H](CCCCN)C(=O)NC(C)(C)C(=O)N[C@H](C(=O)N[C@@H](CCCNC(=N)N)C(=O)N[C@@H](CCC(N)=O)C(=O)N[C@@H](CCCNC(=N)N)C(=O)N[C@@H](CC1CCCCC1)C(N)=O)[C@@H](C)O) [compound No. 204]”, the “GBA EC50 Ratio” value with human Y2 receptor [1] is listed as 1.3. Further, the “food intake suppression rate (%)” value in the test on male C57EL/6J mice came to 16%. For the same substance, in the test with human Y2 receptor [2], the “RBA IC50 Ratio” value came to 0.8.
The like results for “(Tetrahydro-2H-pyran-4-yl)carbonyl-[D-Pro24, Iva25, Pya(4)26, Cha27,36, Aib28,31, Lys30]-PYY(23-36) (Tetrahydropyran4carbonyl-S[dP][Iva][4Pal][Cha][Aib]NK[Aib]TRQR[Cha]-NH2; SMILES CC[C@](C)(NC(=O)[C@H]1CCCN1C(=O)[C@H](CO)NC(=O)C1CCOCC1)C(=O)N[C@@H](Cc1ccncc1)C(=O)N[C@@H](CC1CCCCC1)C(=O)NC(C)(C)C(=O)N[C@@H](CC(N)=O)C(=O)N[C@@H](CCCCN)C(=O)NC(C)(C)C(=O)N[C@H](C(=O)N[C@@H](CCCNC(=N)N)C(=O)N[C@@H](CCC(N)=O)C(=O)N[C@@H](CCCNC(=N)N)C(=O)N[C@@H](CC1CCCCC1)C(N)=O)[C@@H](C)O) [compound No. 342]” were, in that order, 1.9, 36% and 3.3.
For “(Tetrahydro-2H-pyran-4-ylmethyl)carbamoyl-[D-Pro24, Pya(4)26, Cha27,36, Aib28,31, Lys30]-PYY(23-36) (X2-S[dP]R[4Pal][Cha][Aib]NK[Aib]TRQR[Cha]-NH2; SMILES C[C@@H](O)[C@H](NC(=O)C(C)(C)NC(=O)[C@H](CCCCN)NC(=O)[C@H](CC(N)=O)NC(=O)C(C)(C)NC(=O)[C@H](CC1CCCCC1)NC(=O)[C@H](Cc1ccncc1)NC(=O)[C@H](CCCNC(=N)N)NC(=O)[C@H]1CCCN1C(=O)[C@H](CO)NC(=O)NCC1CCOCC1)C(=O)N[C@@H](CCCNC(=N)N)C(=O)N[C@@H](CCC(N)=O)C(=O)N[C@@H](CCCNC(=N)N)C(=O)N[C@@H](CC1CCCCC1)C(N)=O) [compound No. 325]” the same measures were 0.7, 47% and 0.82.
“Ac-[Glu23, D-Hyp24, Iva25, Pya(4)26, Cha27,36, Leu(Me)28, Lys30, Aib31]-PYY(23-36) (Ac-E[dHyp][Iva][4Pal][Cha][tBuAla]NK[Aib]TRQR[Cha]-NH2; SMILES CC[C@](C)(NC(=O)[C@H]1C[C@H](O)CN1C(=O)[C@H](CCC(=O)O)NC(C)=O)C(=O)N[C@@H](Cc1ccncc1)C(=O)N[C@@H](CC1CCCCC1)C(=O)N[C@@H](CC(C)(C)C)C(=O)N[C@@H](CC(N)=O)C(=O)N[C@@H](CCCCN)C(=O)NC(C)(C)C(=O)N[C@H](C(=O)N[C@@H](CCCNC(=N)N)C(=O)N[C@@H](CCC(N)=O)C(=O)N[C@@H](CCCNC(=N)N)C(=O)N[C@@H](CC1CCCCC1)C(N)=O)[C@@H](C)O) [compound No. 351]”: the “GBA EC50 Ratio” value in the test with human Y2 receptor [1] came out at 1.9. In addition, in the test on male C57EL/6J mice, the “food intake suppression rate (%)” value came out at 27%. The “RBA IC50 Ratio” value with human Y2 receptor [2] is given as 1.2.
Take “Ac-[D-Pro24, Ala(4Pip)26, Cha27,36, Aib28,31, Lys30]-PYY(23-36) (Ac-S[dP]R[Ala(piperidin-4-yl)][Cha][Aib]NK[Aib]TRQR[Cha]-NH2; SMILES CC(=O)N[C@@H](CO)C(=O)N1CCC[C@@H]1C(=O)N[C@@H](CCCNC(=N)N)C(=O)N[C@@H](CC1CCNCC1)C(=O)N[C@@H](CC1CCCCC1)C(=O)NC(C)(C)C(=O)N[C@@H](CC(N)=O)C(=O)N[C@@H](CCCCN)C(=O)NC(C)(C)C(=O)N[C@H](C(=O)N[C@@H](CCCNC(=N)N)C(=O)N[C@@H](CCC(N)=O)C(=O)N[C@@H](CCCNC(=N)N)C(=O)N[C@@H](CC1CCCCC1)C(N)=O)[C@@H](C)O) [compound No. 310]”: the “GBA EC50 Ratio” value with human Y2 receptor [1] was 1.5. Further, the “food intake suppression rate (%)” value in the test with male C57EL/6J mice came to 12%. Besides, the “RBA IC50 Ratio” value in the test with human Y2 receptor [2] stood at 1.2.
Turning to “Ac-[D-Pro24, Pya(4)26, Cha27,36, Iva28, Lys30, D-Iva31]-PYY(23-36) (Ac-S[dP]R[4Pal][Cha][Iva]NK[dIva]TRQR[Cha]-NH2; SMILES CC[C@@](C)(NC(=O)[C@H](CCCCN)NC(=O)[C@H](CC(N)=O)NC(=O)[C@](C)(CC)NC(=O)[C@H](CC1CCCCC1)NC(=O)[C@H](Cc1ccncc1)NC(=O)[C@H](CCCNC(=N)N)NC(=O)[C@H]1CCCN1C(=O)[C@H](CO)NC(C)=O)C(=O)N[C@H](C(=O)N[C@@H](CCCNC(=N)N)C(=O)N[C@@H](CCC(N)=O)C(=O)N[C@@H](CCCNC(=N)N)C(=O)N[C@@H](CC1CCCCC1)C(N)=O)[C@@H](C)O) [compound No. 249]”, the “GBA EC50 Ratio” value with human Y2 receptor [1] stood at 0.67. The “food intake suppression rate (%)” value in the test with male C57EL/6J mice is reported as 39%. The “RBA IC50 Ratio” value with human Y2 receptor [2] turned out to be 0.36.
For the substance “Ac-[D-Pro24, Pya(4)26, Nal(2)27, Aib28,31, Lys30, Cha36]-PYY(23-36) (Ac-S[dP]R[4Pal][2Nal][Aib]NK[Aib]TRQR[Cha]-NH2; SMILES CC(=O)N[C@@H](CO)C(=O)N1CCC[C@@H]1C(=O)N[C@@H](CCCNC(=N)N)C(=O)N[C@@H](Cc1ccncc1)C(=O)N[C@@H](Cc1ccc2ccccc2c1)C(=O)NC(C)(C)C(=O)N[C@@H](CC(N)=O)C(=O)N[C@@H](CCCCN)C(=O)NC(C)(C)C(=O)N[C@H](C(=O)N[C@@H](CCCNC(=N)N)C(=O)N[C@@H](CCC(N)=O)C(=O)N[C@@H](CCCNC(=N)N)C(=O)N[C@@H](CC1CCCCC1)C(N)=O)[C@@H](C)O) [compound No. 307]”, the “GBA EC50 Ratio” value in the test with human Y2 receptor [1] turned out to be 4.0. For the same substance, the “food intake suppression rate (%)” value with male C57EL/6J mice was 22%. In addition, the “RBA IC50 Ratio” value with human Y2 receptor [2] is reported as 7.2.
The like results for “(2-amino-2-oxoethyl)carbamoyl-[D-Pro24, Pya(4)26, Cha27,36, Aib28,31, Lys30]-PYY(23-36) ({(2-amino-2-oxoethyl)carbamoyl}-S[dP]R[4Pal][Cha][Aib]NK[Aib]TRQR[Cha]-NH2; SMILES C[C@@H](O)[C@H](NC(=O)C(C)(C)NC(=O)[C@H](CCCCN)NC(=O)[C@H](CC(N)=O)NC(=O)C(C)(C)NC(=O)[C@H](CC1CCCCC1)NC(=O)[C@H](Cc1ccncc1)NC(=O)[C@H](CCCNC(=N)N)NC(=O)[C@H]1CCCN1C(=O)[C@H](CO)NC(=O)NCC(N)=O)C(=O)N[C@@H](CCCNC(=N)N)C(=O)N[C@@H](CCC(N)=O)C(=O)N[C@@H](CCCNC(=N)N)C(=O)N[C@@H](CC1CCCCC1)C(N)=O) [compound No. 292]” were, in that order, 0.74, 36% and 1.2.
